For the series, the target named is Major capsid protein (MCP), Trx fusion (Singapore grouper iridovirus (SGIV-Gx), UniProt Q5YFJ3 1-463). Description: EMSA. Particulars: protein: recombinant; tags: Trx-His (pET-32a), 68 kDa. (In general: Mobility shift assays separate free from complexed probe on a gel.)

B1: Q5c (ssDNA)
DNA: TATTCGGGTTATTGCTCCTCTTTATTGTCACCTGGATGTATGATCGTGTAG
Take B1: the binding result is “binds”.
